What was measured:
[1] = target: T1, Superfolder-GFP-tagged M-HBsAg (serotype ayw, genotype D3) (Hepatitis B virus genotype D3, serotype …, UniProt P03138); experiment: pull-down; conditions: one partner purified
T1 construct: source: FreeStyle 293F cells, BacMam virus; purified (ELISA); membranes solubilised with 1% LMNG and 0.1% CHS, supernatant (pull-down); not shown: superfolder GFP, N-terminal, kept

[2] = target: T1, Superfolder-GFP-tagged M-HBsAg …; experiment: ELISA; conditions: both partners purified

Binder | binding result [1] | binding result [2]
strep-tagged Fab_(H006) (Fab, V domains shown) VH: QMRLVESGGGVVRPGGSLRLSCAGSGFRFTGYGIHWVRQAPGKGLEWLAYISNDGSKKYHTDSVKGRFTVSRDNAKNTAYLQMNSLRVEETAVYFCAKDGYLSAARGYGMDVWGQGIPVTVSP VL: SYVLTQPPSVSVAPGQTATITCGGNNIGGKSVHWFQQKPGQAPLLIISDDNDRPSGIPERVSGSNSGNTATLTISRVEAGDEADYYCQVWDTTSDQLVFGGGTMLTVL | binds | 
Myc-tagged scFv_(H006) (scFv, V domains shown) VH: QMRLVESGGGVVRPGGSLRLSCAGSGFRFTGYGIHWVRQAPGKGLEWLAYISNDGSKKYHTDSVKGRFTVSRDNAKNTAYLQMNSLRVEETAVYFCAKDGYLSAARGYGMDVWGQGIPVTVSP VL: SYVLTQPPSVSVAPGQTATITCGGNNIGGKSVHWFQQKPGQAPLLIISDDNDRPSGIPERVSGSNSGNTATLTISRVEAGDEADYYCQVWDTTSDQLVFGGGTMLTVL | binds | 
3× HA-tagged FabHBC (Fab, V domains shown, also called NAbHBC; parental antibody of VIR-3434; source: FreeStyle 293F, co-transfected heavy and light chain, purified from the supernatant (Ni-NTA, SP HP); not shown: His tag (from the Ni-NTA purification); 3× HA, C-terminal, kept) VH: ELQLVESGGGWVQPGGSQRLSCAASGRIFRSFYMSWVRQAPGKGLEWVATINQDGSEKLYVDSVKGRFTISRDNAKNSLFLQMNNLRVEDTAVYYCAAWSGNSGGMDVWGQGTTVSVSS VL: SYELTQPPSVSVSPGQTVSIPCSGDKLGNKNVCWFQHKPGQSPVLVIYEVKYRPSGIPERFSGSNSGNTATLTISGTQAMDEAAYFCQTWDSTTVVFGGGTRLTVL |  | binds
strep-tagged Fab_(GC1102) (Fab, V domains shown, also called strep-HA-tagged NAb_(GC1102); Fab_(GC1102) bait) VH: EVQLVESGGGLVKPGGSLRLSCSASGFSLTKYKMTWVRQAPGKGLEWVSSISSTSRDIDYADSVKGRFTISRDNAKNSLFLQMSSLRVDDTAVYYCTRDGWLWGWDVRSNYYYNALDVWGQGTTVTVSS VL: DIVVTQSPSSLSASVGDRVTITCRASQGIYNSIAWYQQKPGKAPKLLLYSTSTLLSGVPSRFSGSGSGTDYTLTITNLQPEDFATYYCQQYFVTPETFGQGTKLEIK | binds | 
Myc-tagged Fab_(GC1102) (Fab, V domains shown, also called NAb_(GC1102); GC1102 prey) VH: EVQLVESGGGLVKPGGSLRLSCSASGFSLTKYKMTWVRQAPGKGLEWVSSISSTSRDIDYADSVKGRFTISRDNAKNSLFLQMSSLRVDDTAVYYCTRDGWLWGWDVRSNYYYNALDVWGQGTTVTVSS VL: DIVVTQSPSSLSASVGDRVTITCRASQGIYNSIAWYQQKPGKAPKLLLYSTSTLLSGVPSRFSGSGSGTDYTLTITNLQPEDFATYYCQQYFVTPETFGQGTKLEIK | binds | 
